Residue numbers refer to the chain shown, from its start. Like-named read-outs stand apart in the source and are kept apart here.
What was measured:
[1] = target: T1, human TfR extracellular domain (ECD) (human, UniProt P02786 89-760); assay: BLI (Octet), IgG on Protein A sensor, huTfR-ECD-His in solution, 1:1 global fit
T1 construct: extracellular domain; Bought protein; also called HuTfR; huTfR
Protocol: FIG. 1. Illustrates the Kinetics and binding affinities of human transferrin receptor (TfR) antibodies and represents the kinetic binding graphs determined using BLI method with Octet 96-Red instrument. Protein A sensors (Fortebio) were used to capture anti-TfR IgG. During all incubation steps, sample temperature was set to room temperature with 1000 rpm shaking. Individual purified TfR antibodies were loaded onto sensors. After antibody capture, the antibody-loaded sensors were subject to a solution flow containing huTfR-ECD-His at designated concentrations: (indicated by the colored lines under each graphs) and for a defined time (shown in X-axis). After binding, the sensors were incubated in blank kinetics buffer to allow free dissociation of TfR for designated time. The binding kinetics parameters were calculated by the software from Fortebio (version 11) using 1:1 binding model with global fitting.

[2] = target: T2, muTfR extracellular domain (ECD), His-tagged (mouse, UniProt Q62351 89-763); assay: BLI (Octet), IgG on Protein A sensor, muTfR-ECD-His in solution, 1:1 global fit
T2 construct: extracellular domain; Bought protein (Sino Biological); also called muTfR-His; muTfR ECD
Source text: FIG. 3. Illustrates the Kinetics and binding affinities of murine transferrin receptor (TfR) antibodies and represents the kinetic binding graphs determined using BLI method with Octet 96-Red instrument. Protein A sensors (Fortebio) were used to capture anti-TfR IgG. Individual purified TfR antibodies were loaded onto Protein A sensors and subject to a solution flow containing muTfR-ECD-His at designated concentrations: (indicated by the colored lines under each graphs) and for a defined time (shown in X-axis). After binding, the sensors were incubated in blank kinetics buffer to allow free dissociation of TfR for designated time.
FIG. 4: Illustrates the binding kinetics parameters were calculated by the software from Fortebio (version 11) using 1:1 binding model with global fitting. KD is calculated by kdis/kon as determined from the FIG. 3 data.

[3] = target: T1, human TfR extracellular domain (ECD); assay: phage ELISA, scFv phage on coated TfR, anti-M13-HRP, single point
[4] = target: T1, human TfR extracellular domain (ECD); assay: as above; remark: listed apart in the source
[5] = target: T3, cynomolgus TfR extracellular domain (ECD) (cynomolgus); assay: Octet BLI, serial dilution of antigen
T3 chain: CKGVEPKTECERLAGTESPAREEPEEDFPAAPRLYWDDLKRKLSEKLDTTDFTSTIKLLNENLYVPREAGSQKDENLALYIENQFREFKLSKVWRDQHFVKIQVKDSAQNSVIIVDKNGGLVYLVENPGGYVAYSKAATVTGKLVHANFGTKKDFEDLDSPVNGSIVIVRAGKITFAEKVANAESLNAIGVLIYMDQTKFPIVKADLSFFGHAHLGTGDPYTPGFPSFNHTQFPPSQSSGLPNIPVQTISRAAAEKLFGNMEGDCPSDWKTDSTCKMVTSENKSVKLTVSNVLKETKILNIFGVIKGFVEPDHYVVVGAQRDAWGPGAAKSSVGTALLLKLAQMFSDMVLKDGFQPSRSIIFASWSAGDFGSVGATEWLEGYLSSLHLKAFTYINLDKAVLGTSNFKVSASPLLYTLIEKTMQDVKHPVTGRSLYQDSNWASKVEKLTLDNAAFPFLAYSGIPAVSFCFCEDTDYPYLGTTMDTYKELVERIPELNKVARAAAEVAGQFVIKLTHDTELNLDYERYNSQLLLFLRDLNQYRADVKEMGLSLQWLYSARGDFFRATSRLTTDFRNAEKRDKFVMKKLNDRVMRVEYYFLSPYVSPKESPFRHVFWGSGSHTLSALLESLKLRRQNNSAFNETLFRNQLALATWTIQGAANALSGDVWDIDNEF

[6] = target: T1, human TfR extracellular domain (ECD); assay: Octet BLI, serial dilution of antigen

T2 sequence (Q62351 89-763): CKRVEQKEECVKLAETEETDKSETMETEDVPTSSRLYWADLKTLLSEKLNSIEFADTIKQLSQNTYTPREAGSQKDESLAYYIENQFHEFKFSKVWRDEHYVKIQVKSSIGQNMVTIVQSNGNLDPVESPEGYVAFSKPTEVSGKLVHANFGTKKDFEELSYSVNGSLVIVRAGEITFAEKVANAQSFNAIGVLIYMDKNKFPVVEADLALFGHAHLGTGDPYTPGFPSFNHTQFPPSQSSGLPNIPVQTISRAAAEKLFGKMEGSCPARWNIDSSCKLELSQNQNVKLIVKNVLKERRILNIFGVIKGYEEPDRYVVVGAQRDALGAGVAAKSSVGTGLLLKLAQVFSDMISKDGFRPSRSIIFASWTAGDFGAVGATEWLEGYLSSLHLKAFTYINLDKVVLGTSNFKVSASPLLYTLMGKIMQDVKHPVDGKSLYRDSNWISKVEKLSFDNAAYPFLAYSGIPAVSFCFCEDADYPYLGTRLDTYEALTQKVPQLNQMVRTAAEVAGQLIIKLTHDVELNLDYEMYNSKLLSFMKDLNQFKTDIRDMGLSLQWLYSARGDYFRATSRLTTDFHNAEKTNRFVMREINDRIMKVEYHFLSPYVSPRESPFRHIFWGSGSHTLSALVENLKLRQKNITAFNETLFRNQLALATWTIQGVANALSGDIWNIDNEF

B1: Ab1 (antibody, V domains shown)
VH: QVQLMQSGAEVKKPGSSVKVSCKASGGTFSSYAISWVRQAPGQGLEWMGRIIPILGIANYAQKFQGRVTITADKSTSTAYMELSSLRSEDTAVYYCARDRDTMVRGGMDVWGQGTMVTVSS
VL: QSALNQPPSASGSPGQSVTISCTGTGSDIGGHNYVSWYQQHPGKAPKLMIYDVSKRPSRVPDRFSGSKSGNTASLTVSGLQAEDEADYYCSSYAGSNVVFGAGTKVTVL
B1 was tested, and the Kd [1] was 3.46 nM, the koff [1] was 0.000398 s⁻¹ and the kon [1] was 115000 M⁻¹ s⁻¹.

B2: Ab59 (antibody, V domains shown)
VH: QVQLVESGGGVVQPGRSLRLSCAASGFTFSSYAMHWVRQAPGKGLEWVAVISYDGSNKYYADSVKGRFTISRDNSKNTLYLQMNSLRAEDTAVYYCARGGPYYDFWSDGMDVWGQGTMVTVSS
VL: QSVLTQPHSVSESPGKTVTISCTRSSGSIASNYVQWYQQRPGSSPTTVIYEDNQRPSGVPDRFSGSIDSSSNSASLTISGLKTEDEADYYCQSYDSSNYVFGTGTKVTVL
B2 gave a Kd [2] of 2.17 nM, a koff [2] of 0.000162 s⁻¹ and a kon [2] of 74900 M⁻¹ s⁻¹.

B3: 8A5 (antibody, V domains shown)
VH: QVQLVQSGAEVKKPGESLRISCKGSGYSFTSYWISWVRQMPGKGLEWMGRIDPSDSYTNYSPSFQGHVTISADKSISTAYLQWSSLKASDTAIYYCARARTWFDAFDIWGQGTTVTVSS
VL: QAVVTQPPSASGTPGQRVTISCSGGSSNIGRYSVNWYQQLPGTAPKLLINSNIQRPSGVPDRFSGSKSGTSASLAISGLQSEDEADYHCAAWDDSLKGWVFGGGTKVTVL
notes: Human IgG1, converted from a phage scFv clone
B3: binds [3].

B4: Ab42 (antibody, V domains shown)
VH: QVQLVQSGAEVKKPGSSVKVSCKASGGTFSSYAISWVRQAPGQGLEWMGGIIPIFGTANYAQKFQGRVTITADESTSTAYMELSSLRSEDTAVYYCARGATRGMDVWGQGTLVTVSS
VL: DIVMTQSPSSLSASVGDRVTITCRASQSISNFLNWYQQKPGKAPKLLIYAASSLQSGVPSRFSGSRSGTDFTLTISSLQPEDFATYYCQQSSSIPLTFGGGTKLEIK
B4 showed a Kd [2] of 2.09 nM, a koff [2] of 0.00013 s⁻¹ and a kon [2] of 62000 M⁻¹ s⁻¹.

B5: 7A1 (antibody, V domains shown)
VH: QVQLVQSGAEVKKPGSSVKVSCKASGGTFSSYAISWVRQAPGQGLEWMGGIIPIFGTANYAQKFQGRVTITADESTSTAYMELSSLRSEDTAVYYCARSGYYNDAFDIWGQGTMVTVSS
VL: QSALTQPASVSGSPGQSITISCTGTNSDIGGYNYVSWYQQHPGKAPKLMIYEVSNRPSGVSNRFSGSKSGNTASLTISGLQAEDEAHYYCSSYTSSSTLVFGGGTKVTVL
notes: as for B3
B5: binds [3].

B6: 1C8 (antibody, V domains shown)
VH: B5 VH with V18M, N59K, S77T, R87S, G100L, Y101G, Y102W, N103Y, D104Y
VL: DIVMTQSPSTLSASVGDRVTITCRASQNINNWLAWYQQKPGKAPKLLIYKASTAESGVPSRFSGSGFGTEFTLTISSLQPDDFASYYCQQYKNYPYSNLYTFGQGTKVDIK
notes: as for B3
B6: binds [4].

B7: Ab5 (antibody, V domains shown)
VH: QVQLVESGGGLVQPGRSLRLSCAASGFTFDDYAMHWVRQAPGKGLEWVSGISWNSGSIGYADSVKGRFTISRDNAKNSLYLQMNSLRAEDTALYYCAKVSSQSGSVAGFDYWGQGTLVSVSS
VL: QPVLTQPPSASGTPGQRVTISCSGSSSNIGANYVYWYQQLPGTAPKLLIYRNNQRPSGVPDRFSGSKSGTSASLAIGGLRSEDEADYYCAGWDDSLSGVLFGGGTKVTVL
In the case of B7, the Kd [2] is reported as 2.58 nM, the koff [2] is reported as 0.000135 s⁻¹ and the kon [2] is reported as 52300 M⁻¹ s⁻¹.

B8: Ab2 (antibody, V domains shown)
VH: QVQLVQSGAEVKKPGSSVKVSCKASGGTFSSYAISWVRQAPGQGLEWMGGIIPIFGTANYAQKFQGRVTITADESTSTAYMELSSLRSEDTAVYYCARFAFFSLASEDYWGQGTLVIVSS
VL: not shown
B8 gave a Kd [2] of 8.37 nM, a koff [2] of 0.000145 s⁻¹ and a kon [2] of 17300 M⁻¹ s⁻¹.

B9: Ab30 (antibody, V domains shown)
VH: EVQLVQSGGGLAQPGGSLRLSCAASGFTFSIYSMNWVRQAPGKGLEWVSYIGGGGTSIYYADSVKGRFTISRDNAKNSLSLQMNSLRAEDTGVYYCARGKPATGFDYWGQGTLVSVSS
VL: QSVLTQPRSVSGSPGQSVTISCTGTSSDVGGYNYVSWYQQHPGKAPKLMISEVSKRPSGVPDRFSGSKSGNTASLTVSGLQAEDEADYYCSSYAGGYTPYVFGTGTKVTVL
In the case of B9, the Kd [1] is reported as under 0.001 nM, the koff [1] is reported as under 1e-07 s⁻¹ and the kon [1] is reported as 119000 M⁻¹ s⁻¹.

B10: 5B6 (antibody, V domains shown)
VH: PVLLVQSGAEVKKPGSSVKVSCKASGGTFSSYAISWVRQAPGQGLEWMGGIIPIFGTANYAQKFQGRVTITADESTSTAYMELSSLRSEDTAVYYCAVSIFGVVIPLDYWGQGTLVIVSS
VL: QPVLTQSPSVSLAPGQTAKITCGGTNIGRKSVHWYQQKPGQAPVMVIYYDSDRPSGIPERFAGSNSGNTATLTISRVEAGDEAVYYCQVWDSSSASGVFGGGTKVTVL
notes: as for B3
Binder B10 has a Kd [5] of under 0.001 nM, a koff [5] of under 1e-07 s⁻¹ and a kon [5] of 87900 M⁻¹ s⁻¹. The Kd [6] was 0.575 nM, the koff [6] was 2.98e-05 s⁻¹ and the kon [6] was 51800 M⁻¹ s⁻¹.

B11: 8G5 (antibody, V domains shown)
VH: QVQLVQSGAEVKKPGASVKVSCKASGYTFTSYGISWVRQAPGQGLEWMGWISAYNGNTNYAQKLQGRVTMTTDTSTSTAYMELRSLRSDDTAVYYCARVGYYYYGMDVWGQGTTVTVSS
VL: QSVLTQPPSVSGAPGQRVTISCTGSSSNIGAGFDVHWYQQLPGTAPKLLIYANSNRPSGVPDRFSASKSGTSASLAITGLQAEDEADYYCQSYDRSLSGYVFGSGTKVTVL
notes: as for B3
B11: binds [3].

B12: 7B10 (antibody, V domains shown)
VH: QVQLVQSGAEVKKPGASVKVSCKASGYTFTSYGISWVRQAPGQGLEWMGWISAYNGNTNYAQKLQGRVTMTTDTSTSTAYMELRSLRSDDTAVYYCARDQKLLHILYYYGMDVWGQGTTVIVSS
VL: DIVMTQSPLSLSVTPGEPASISCRSSQSLLHSNGNNYLDWYLQKPGQSPQLLIYLGSNRASGVPDRFSGSGSGTDFSLKINKVEAEDVGVYYCMQALQTAYTFGQGTKLEIK
notes: as for B3
B12: binds [3].

B13: 1B2 (antibody, V domains shown)
VH: QVQLVQSGAEVKKPGESLRISCKGSGYSFTSYWISWVRQMPGKGLEWMGRIDPSDSYTNYSPSFQGHVTISADKSISTAYLQWSSLKASDTAMYYCARHPLAYCGGDCQRGFDYWGQGTLVTVSS
VL: QPVLTQPPSVSVSPGQTARITCSGDKLREDLTSWYQQKPGQSPVLVIYQDSKRPSGIPARFSGSISGSTATLTISGTQAVDEADYYCQAWDNSVDYVFGTGTKVTVL
notes: as for B3
B13: binds [4].

B14: muTfR Ab4 (antibody, V domains shown)
VH: EVQLVESGGGLVKPGGSLRLSCAASGFTFSWYTMNWVRQAPGKGLEWVSSISSSSSDMYYADSVKGRFTISRDNAKNSLYLQIDSLRAEDTAVYYCARAHYYDSTSLNHFYGMDVWGQGTTVTVSS
VL: QSVLTQPPSVSVAPGKTARITCGGNNIGSRTVHWYQQRPGQAPMLVVSDDNDRPSGIPERFSGSNSGNTATLTITRVEAGDEADYYCQVWDSSSDHLVFGGGTQLTVL
modifications: Biotinylated when used as the probe in the competition ELISA; the sites are not stated and the letters do not carry them.
notes: also called anti-muTfR Ab4; biotinylated Ab4
B14 gave a Kd [2] of 5.03 nM, a koff [2] of 0.000391 s⁻¹ and a kon [2] of 77700 M⁻¹ s⁻¹.

B15: 4G1 (antibody, V domains shown)
VH: EVQLLESGGGLIQPGGSLRLSCAASGFSVSSYYMNWVRQAPGKGLEWVSNTYTDGSTSYADSVGGRFSVSRDNSKNTLHLQMNSLRVEDTAVYYCAREGDGYNSGGLDYWGQGTLVTVSS
VL: DIQLTQSPASLSASLGDRVTITCRASQSIGTYLNWYQQRPGQAPKLLIFGTSSLQSGVPSRFSGSGSGTDFTLTISSLQPEDLATYYCQQTYITPRTFGQGTKVEIK
notes: as for B3
B15 was tested, and the Kd [5] was under 0.001 nM, the koff [5] was under 1e-07 s⁻¹ and the kon [5] was 94500 M⁻¹ s⁻¹. The Kd [6] was under 0.001 nM, the koff [6] was under 1e-07 s⁻¹ and the kon [6] was 79900 M⁻¹ s⁻¹.
